Reference: patent publication US8728787B2, “Fungal laccases and uses thereof” (Academia Sinica, priority 2010, dated 2014)

Columns and labels:
[1] = ABTS oxidation assay (laccase activity, kinetics, effect of temperature and pH); format: biochemical
Method: All chemicals used in this study were obtained from Merck (Darmstadt, Germany) or Sigma-Aldrich (St. Louis, Mo. USA). All spectrophotometric measurements were performed using the Beckman DU 640 spectrophotometer (Beckman Coulter, USA).
(§1) The effect of temperature on laccase activity was studied using the standard enzymatic activity assay described above under various reaction temperatures (i.e., 20-80° C.). For thermal stability study, the enzyme was pre-incubated in a 50 mM citric acid buffer (pH 3.0) at 50-80° C. for 0-180 min and the residual enzymatic activity was then determined.
(§2) The effect of pH on the laccase activity was investigated at a pH range of 2.5-6.0. Four buffer systems were used in this study: 50 mM glycine-HCl buffer (pH 2.5), 50 mM citric acid buffer (pH 3.0-5.5), 50 mM sodium phosphate buffer (pH 6.0-8.0), and 50 mM glycine-NaOH buffer (pH 9.0-10). To determine the protein stability of laccase at a wide range of pH conditions, the enzyme (0.1 mg/mL in each reaction) was pre-incubated at pH 3.0-10 at 25° C. for 0-5 days and then the residual enzyme activity was determined.
(§3) Kinetic parameters Km and Vmax were determined as follows. […] The oxidation reactions of guaiacol and 2,6-DMP were monitored by determining OD436 values (ε=6,400 M^−1cm^−1) and OD468 values (ε=49,600 M^−1 cm^−1), respectively. The kinetic parameters were determined by nonlinear regression analysis (ENZFITTER software program, Elsevier-Biosoft, Cambridge, UK) using the Michaelis-Menten model.
(§4) To determine the effect of temperature on the enzyme activity, a standard enzymatic activity assay was performed under various temperatures (i.e., 30-90° C.). For thermal stability study, laccase was pre-incubated in a 50 mM citric acid buffer (pH 3.0) at 30-80° C. for 10-40 min and the residual enzymatic activity was then determined by the standard assay. See Example 1 above. Values of t1/2 were determined accordingly.
(§5) The effect of pH on laccase activity was investigated at pH 2.0-6.0, using a glycine-HCl buffer (pH 2.0-2.5) or a citric acid buffer (pH 2.5-6.0). To determine protein stability in different pH conditions, the enzyme was pre-incubated at pH 2.5-4.5 at 25° C. for 0-2 h and the residual enzyme activity was determined by the standard enzymatic assay.
(§6) Kinetic parameters were determined following conventional methods. See also Example 1 above.

[2] = Laccase activity in culture media of recombinant P. pastoris; format: biochemical; settings: expressed in P. pastoris X-33; 13-26 day (Lcc1-3) or 18-day (LccA) cultivation
From the text: The EasySelect™ Pichia Expression System (Invitrogen) was used in this study for expression of Lcc1, Lcc2, and Lcc3 laccases. cDNA fragments coding for these three laccases were cloned into Pichia expression vector pPICZA or pPICZaB via EcoRI and NotI restriction sites. More specifically, the lcc1 gene coding for Lcc1 precursor (including a signal peptide sequence) was cloned into pPICA to generate expression plasmid pPICZA-lcc1 and the lcc2 and lcc3 genes coding for mature Lcc2 and Lcc3 were cloned into pPICZaB to obtain expression plasmids pPICZaB-lcc2 and pPICZaB-lcc3, respectively. The three expression plasmids were introduced into P. pastoris X-33 cells following the method described in Invitrogen's protocol. Positive transformants were cultured in BMMY (1% yeast extract, 2% peptone, 100 mM potassium phosphate, pH 6.0, 1.34% yeast nitrogen base, 0.00004% biotin, and 0.5% methanol) at 25° C., 200 rpm for 12-26 days. Methanol was added to the culture media daily to reach a final concentration of 0.5%. During the cultivation, 1 ml of the supernatant was collected at various time points. The laccase activity and cell density in the supernatant were determined following the method described above or routine procedures.
pPICZ-lccA was introduced into Pichia pastoris strain X-33 host cells (Invitrogen) and positive transformants were selected for LccA expression. Briefly, a positive transformant was cultured in BMMY medium containing 1% yeast extract, 2% peptone, 1.34% yeast nitrogen base, 0.00004% biotin, and 0.5% methanol at 25° C. and 200 rpm for 20 days. Methanol was daily added to reach a final concentration of 0.5%. Within the 20-day cultivation, 1 ml of the supernatant was collected; laccase activity and cell growth were determined.

[3] = Thermal stability: residual enzymatic activity after pre-incubation (t1/2); format: physicochemical; settings: for t1/2: 50 mM citric acid buffer pH 3.0
Method: as §1
To test thermal stability, the enzyme was kept at various temperatures (50-80° C.) for 10-40 min and the remaining enzymatic activity was determined using the standard activity assay.
as §4

[4] = 2,6-DMP oxidation (laccase kinetics, optimum temperature and pH); format: biochemical; settings: 2,6-DMP as substrate
Method: as §1, §2, §3, §4, §5, §6

B1: Lcc3: laccase purified from Cerrena sp. WR1, GenBank accession no. GQ899203; SEQ ID NO:3 mature, 9 precursor (protein)
chain: AIGPVADLHITDANVSPDGFTRPAVLAGGTFPGPLITGKQGDNFQINVIDELTDATMLKSTSIHWHGIFQKGTNWADGPSFVNQCPITTGNSFLYDFSVPDQTGTYWYHSHLSTQYCDGLRGALVIYDDNDPHKDLYDVDDETTVITLADWYHTQARLITGVPVSDATLINGLGRYLNGPTDAPLAVITVDQGKRYRFRLVSISCDPNFVFSIDNHSMTVIEVDAVNSQPLVVDSIQIFAAQRYSFILNANQSVGNYWIRANPNLGNTGFTNGINSAILRYNGAPVAEPNTTQTASTNPLNEVNLHPLVPTPVPGTPQPGGVDVVQNLVLGFSGGKFTINGVAFSPPTVPVLLQILSGTTTAQDLLPTGSIIELPLGKTVELTLAAGVLGGPHPFHLHGHTFHVVRSAGQTTPNYVDPILRDTVNTGAAGDNVTIRFTTDNPGPWFLHCHIDWHLEAGFAVVFAEGLNQTNAANPTPDAWNNLCDLYNALPAGDQ
modifications: Cerrena sp
For B1, the optimal temperature ([1]; ABTS as substrate) was 50 °C, the “pH of maximal activity” value ([1]; ABTS as substrate) was 3.0 and the Optimum temperature ([1]; ABTS as substrate, at pH 3.0) was 50 (at pH 3.0) ° C. For the same molecule, the Specific activity ([1]; ABTS as substrate, optimum temperature and pH) was 1013.5 U/mg, the “specific activity of the purified laccase” value ([1]; at 30° C. and pH 3.0, ABTS) was 2,159.6 U/mg and the “laccase activity in culture media” value [2] was about 3700 U/L. For the same molecule, the “t1/2 at room temperature” value ([3]; 25° C., 50 mM sodium phosphate buffer (pH 6.0)) was 40 days, the t1/2 ([3]; at 50° C.) was 120 min and the t1/2 ([3]; at 60° C.) was 40 min. For the same molecule, the t1/2 ([3]; at 70° C.) was 7.5 min, the t1/2 ([3]; at 70° C., listed as Cerrena sp. WR1) was 8 min and the optimal temperature [4] was 70 °C. For the same molecule, the “pH of maximal activity” value [4] was 3.5, the Optimum temperature ([4]; at pH 3.5) was 70 (at pH 3.5) ° C and the Specific activity ([4]; optimum temperature and pH) was 118.3 U/mg.
